Results from the domain aggregation screens of Martell et al. (2025).

Test: soluble fraction after stress (log2 fold change); higher = more stays soluble; pooled small domains, quantitative proteomics
Conditions: stress: pH 4
Outline: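 With high-throughput quantitative proteomics, pooled custom libraries of small protein domains were measured after pH 4 stress. Each domain's soluble amount after the stress gives a fold change taken as aggregation propensity. Higher log2 values mean more of the domain stayed soluble.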

Sequence | soluble fraction (log2)
HMEDIPENIRYKFLLKELKENEHLNILDKENIARKLTEIDLPELEKELLENEILNSTIKDYLGIKLV | -0.912
HMEDKFEYQGELKSLIEPTSFSELVSALNVRDTLQAIIDFAMREEDTSGYEELKVRQNDYIQEYLNSIGNF | -1.28
HMEDKFEYQGERKSLIYPTSFSELTEALGVRNMLQSIIDFATRDEDTSGYEEMKERQNEYIQEYL | 0.0125
HMEDKKQVLYELITDKSYRPLRFKELAVLLMVPKALRGELKQTLDELIKEGKITVDSSSRYRAA | 0.276
HMEDLDKIISAYLDENPQIVSDYGKGNKKAVNSAIGFVMKSTGGKYSSSDIVDAVRSMIVSISV | -0.254
HMEDNYYENKINYLFGYLDEADKEISVNSILDFHLAHRTNPEFVFEPKKNTNPLIWKYLSNSNLLY | 0.0187
HMEDPLGDLIGRIAAATGRPVQDIVAEVHRVVTDHFDGNLRVEAAAVILARKYGVAFEDKLSALQRSV | -0.559
HMEDSAKRHQIMDGARRVFMDLGFDGASMNEIARAAGVSKGTLYVYFTDKNRLFEAIVEQESL | -1.15
HMEDSEYDRLLAEIDEGIRKAIETLEPVELSPQNARVRRIQHQIIEKYQLHSDSVGEEPYRRVRIL | -1.03
HMEDSHIYPVSFNGKMRFKLELPVSMNKKEIEEVVLQHEDAQKWLNGQNPKKVIVVPKRIINIV | 0.308
HMEDTVNVPIQINGKLRHVIQVQIGTSEEEIQKIALSEEQVKKFTDGHEILKVMVPKGKLVSIVI | -0.126
HMEDVLVTQIIQLKHVDANDMKTLFTPLLSRGSSQLLAYPQSNVLIITDTRSNIKKITEILDIIDKS | -0.838
HMEDVRSLTGPEKAAIILLSLGEEHGQGVWRMFDDEEVKEVSQIMANLGTISASVVEKLLVEFVSQMST | -1.5
HMEDYYKILGVQSNSNPDDIKKAYRKLSLKHHPDRGGDASEFKKINEAYQTLGTPEKRKMYDMQQNN | ≥ 0.43
HMEEEPALLRDLLAKTLEFGLIPQLSHHPALADRTQQLASAVRAAGSASALRNAAASLKSLWIDVDQ | -0.617
HMEEFDLNAYITKINSAATLNALKQAYAEANSAALSVKDKDAQRKIIVEKDKRKAELIQETAG | 0.313
HMEEIALTDILNRFLSSLSLEQRKIFMRRYWYLSPIKEIATEYGMSESKIKMSLFRSRNELKKLLEKEGI | -0.406
HMEEINTAPVFKNIIEIAEYAKTKFTTVEEIPKMIEFIETANSKLDNPHDEESVNELINALSTNIRKNV | -0.554
HMEEITLIAEDEGLRLDTWLTDKLKDYSRSYIQKLMEDELVLVNGKARKANYRIKTGDEIHVSIPEPE | -0.507
HMEELLVAVKADGSIWADGRPITPDGLASFIDSKPADAVLNLAVDKKAPFAAFVKVVDVAKEKKSGRFVIR | -0.141
HMEELPIIVAQRFLNIFRQLHIFSDERREAFNKMLLELPPEVKSIFQSLPGGTPLQEYMEDLEQKSK | -0.262
HMEELTPLQKYVFDYESDISDEVDMRAIKGLENANDVYDYYANVRGWEGDPDLEDDLDNIYRQVKARFA | -1.2
HMEEMTIRQKRTMIFFIEATKHILQEDGYDHLTIREIAQRAGYNAATLYHYFRDLDELIIYGSVG | -0.602
HMEEPEELYRVKILIYNLLVRNGPGILYTRLRRADYPGEYGIYEEKNGYGKISATLSEWISLNTEYVQRLD | -0.378
HMEEVYVPDIRDKSISDAKKILSQMGLKYRIEGEGYDDSTVIKDQTPKPGALLAKDSVVIAYINE | -0.0728
HMEEYLENLTQSKLLHMLDQLSPAYKTVFTLFVLDELSHEEISKMLNISIGTSKSNLFRARKVMRVLMESE | -0.283

Sequence | soluble fraction (log2)
HMEFDIDAAIHAALEPQAVMRAWFGHEGREYPEDFGVVFFRGWESFTHQEKVEAVRDAKKVLDRAVR | -1.17
HMEFDSLINYEVKKKETLFSISKKFKIEINDLLSFNTELKNNKLKKNSIIIIPLKKKIVESQNFEKQKIID | -0.719
HMEFENIEQRKQYWSDLYRELKAGQDAYAKELKKGTEGYTQDELDILKEFTDEAKKQMEAAGVEATDEFAS | -0.176
HMEFLLAIQPFVLLTDHANLTFLREQTDSMMKRIQINISGFEIEFRYVPGLTNILPDKMSRV | -0.199
HMEFQEQLYRLRKQAGLSQEELSHIIGVSRQAVQKWEAGSARPDLDNLIALASHFKLSLDQLVGLT | -0.125
HMEFQSIGGKIRIGREREHLTQAELAQKLSVTRQAVSNWERDKTLPDIYMIREIAEIFGLTLDEFMEGAKK | 0.0806
HMEGDAFAFTGDIQKDLLSITAVHPMRREAVDALIAKAGASWAIVEKLLAHGELTEAKHDGHLFYLRKF | -0.354
HMEGIAEILPASVRQKYGLIGLYDALRGLHFPGNMEEIKAARQRLAFEDTLMFSLTLSMMQYS | -0.0837
HMEGIAYDINTAPEHIDLKAEDMMATFNIGKTALWRWVKQKILPPPYEYRSQAAHWTIGQIRDWKTA | -0.417
HMEGLDDKTKIILFAGDKKEQEYSLADLKSKLNITENLTESELIKLLEKQGYVLDVNANNEFMFKKD | 0.22
HMEGNFFADIRQELMRELDQEAEWSDVQILEKIDDLVLLRTRRSSLTVNEKEQLRKELFYSVRK | -0.394
HMEGRTVMATTAVNVRSGPGTSYKILGVLYPGHTAQQIGNTRYGWAQVTWKGHTAYIAARYLRDS | 0.301
HMEGSLQEDKVKEYQDRFKEELSNDLNTANSITVLYDLIKDDTLNGTTKRYLIEDFDKILSLDLIKE | -0.854
HMEGSVTVMVNGESVTMTGKQNYIFVDVFDWYSFDLSAGKGRAIATLVNGKEAEFSQPLANGDNIELYWKE | -1.42
HMEGTAAAVALKGLMEQSGVDLREVMAAVESRGYYPKGTPFENYDPAFVSGVLVGAWDQVYKMILDQRPIP | -1.1
HMEGVSPQTVQEHIRRFIAAEDPASPLSDEALREALGNLGINASRRTVAKYRGEMGIPSSAQRKR | 0.00892
HMEGVSSESVKEMLKSIIDGEDPHNPVSDQRITDILNSRGINISRRTVAKYRDELGIASSSRRKRY | 0.112
HMEGYLYLSESQNELILKNLKTPLKYNLYNASGKLIKKGNIKNTLDISELPKGVYIFTSSDNSFSKKFLKT | 0.276
HMEHAETDTRERILVVAERLFRQLGYQKTTVADIAKELRMSPANVYRFFDSKKSIHEGVARTL | 0.275
HMEHETTQLELNAPGQRLDAALALALPDTSRAQIQQWIKQGLVTDQAGTALLQASLKLKSPLNVVLQRPI | 0.0662
HMEHIDVSGRAFDVSVSRLKRARRLTMRIDTHKQLVKISAPLHVESSTIRAFLARNQNWLEQQVEKR | 0.199
HMEHLTATERHLVAYLEAHLGQVPSLSITKLSQEANVSTASIVRTMKKLGYDGFTAFKHAIKQQLR | 0.156
HMEHTPHGVALLRTLMDQYGLKAADLANELGSKSNVSNILNGRRALTVSHIKMLAERFNLPADAFI | -0.137
HMEIALNDKQILLFSNKLVHEPSFASKYSKVGESYDDFAIRISENLTIPDKVQEYLPYLEKVGFNI | -0.191
HMEIDDPWLILGINAGSSIEIAQKAWKDLASQNHPDKLIANGVPKELLGMANEKLAIINGAYDKILKAHKI | -0.792
HMEIETPEIRAIHDLLELLANKAKKPEQEQFVQAHPEVQWAKVEANKNGTFAVGKVKAYLKTLQA | -0.568

Sequence | soluble fraction (log2)
HMEIGNVIAKLRVSNGLNQREFAKKLEVSNGAVAMWETNKRQPDLEMIKKISNLFDVPTDYILGAGTFQ | 0.152
HMEIIFVEHKVRPGESVWLIARKYKVKKNHILAVNNLSEKSIIRPKQILKIPTSGYDQYKKSVE | -0.495
HMEIIMIVITKPSITDERIAEIVAVIERNGGVQAHVSKGTDRTVIGIIGKAEPTLAEHLRQMKGVENVIKI | -0.327
HMEIPMRDKLKTYIDYLFAGAPQTAATAETKAEILQNTLDKYDDLIAEGKTPEAAYSLAVSGIGDLGDF | -0.339
HMEIPTEEILKQKLYYSISEVASWFKVNTSLLRYWENEFDILQPRKTRKGDRLFRVEDIKNLQLIYLL | -0.122
HMEITGKYKAKEDIKLKVIPLISSLDLQDIKQNTELEVKDTMNNWAYVTVQEKQGWVVLEKIEKVE | -1.07
HMEITTLTGVLGAGRLDSALAAALPQYSRARIQALISDAALRINGQVVADAGSKKMSGQTFELNIPAPVP | 0.0449
HMEKDEYIFVDIDGAVFNPGVYKLIAGSRVIDAINLAGGLKEKAFTQNLNKARKLVDGEKIYIYLEGDEE | -1.23
HMEKDRDKRIRKRVLTALKRNDKKMTDKAFALLTSRIRDESILDQEVLKLIGYVGDRTTIDSKDINIVVAE | 0.0457
HMEKEEELNSIRPDLDGNDIMEILGVPAGPKVGKAYNYLLNVRLDEGPLSRAEAISRLEAWWENQ | -1.22
HMEKELVSDFASRISTARSSKGWNHAELGKRMAETVNVIKSAESGKPPTDSVVKKLERVLGITLMEV | -0.218
HMEKEYMKNVVGMEYRQARVLLGDMGLELAFQPVYETSDKYPTDVVVSTEPAADQPLTKGQTVILHIST | 0.299
HMEKGNEEALEQAREAILAVQSGEKYVDLDPANAAIRRKQHALAQASDLVSQSYGKDPNRYVRIFR | 0.367
HMEKINLLVENNDNYRLDKIIALNMEELSRTQIQEMIGQGLVLVNGKVEKASYKTKLNDQIEITIED | -0.409
HMEKKKVPEVAGQDEAAARNVMTNSGFVVDVEQKEDDNVPAGKVITTAPAGGVEVVEGTKIILYVSKGSN | 0.0237
HMEKKPYGEMHNVMLTDEELEKLRHDYPAHFAEYIQRLSLHIDAKGARYKSHYAVIRKWLIADGVKA | 0.0221
HMEKLIRIKRLIKQLNEYRDSYYNEARPVVSDAAYDKLFDELSELEKETGVVYANSPTQTVG | -0.457
HMEKPTEITLSNRVSVQELAEKMYVSETDIIRTLFLDGRIININQVLDIDTAIRVGEQLGIKIKII | -1.49
HMEKPTRNKLVEIIIQNKNVTTEQMANLLNISRRAVAKHIKKLQEEGIIRRIGPDFGGHWEIVK | 0.225
HMEKPYTPPANLNEIQSYEELSKAVQYYNKVKDAATTDADRLKAQQSIDTLEDMRKAWDAASST | -0.312
HMEKSLSAQVYEKIKAGIISLKYPPGSVLKERELSESLGVSRTPVREAIQRLSQESWLVPGEGKRMQVRP | ≥ 0.43
HMEKTLAERVNDILAEIKMTKQELAMQLNISRSAVSQYLNGKYSSNPEAIEARLRDFVSSYDRG | -0.243
HMEKYIVEAEEQGKRLDMYISSKDEELTRTSAQRLIEQGDILVNNKKVKVAYKVSEGDIIAVEKQ | 0.00594
HMELDLPLEELGLSTRVLHSLKEEGIESVRALLALNLKDLKNIPGIGERSLEEIKEALEKKGFTLK | -0.423
